Among the data in article PMC2683190 (Neurobiology of disease, 2009) are Kd, koff and kon values, retold here.

For orientation: Kd means the free concentration of one partner at which half of the binding sites on the other are occupied at equilibrium, for simple one-to-one binding. High values mean a looser complex, low ones a tighter complex. In general, koff refers to a measure of how fast the partners let go of each other. A higher koff goes with fast dissociation. What is called kon is the rate constant with which the complex forms.

Assay [1] deals with T1, soluble gp130 (glycoprotein 130) (UniProt P40189 23-619).
T1 sequence (looked up): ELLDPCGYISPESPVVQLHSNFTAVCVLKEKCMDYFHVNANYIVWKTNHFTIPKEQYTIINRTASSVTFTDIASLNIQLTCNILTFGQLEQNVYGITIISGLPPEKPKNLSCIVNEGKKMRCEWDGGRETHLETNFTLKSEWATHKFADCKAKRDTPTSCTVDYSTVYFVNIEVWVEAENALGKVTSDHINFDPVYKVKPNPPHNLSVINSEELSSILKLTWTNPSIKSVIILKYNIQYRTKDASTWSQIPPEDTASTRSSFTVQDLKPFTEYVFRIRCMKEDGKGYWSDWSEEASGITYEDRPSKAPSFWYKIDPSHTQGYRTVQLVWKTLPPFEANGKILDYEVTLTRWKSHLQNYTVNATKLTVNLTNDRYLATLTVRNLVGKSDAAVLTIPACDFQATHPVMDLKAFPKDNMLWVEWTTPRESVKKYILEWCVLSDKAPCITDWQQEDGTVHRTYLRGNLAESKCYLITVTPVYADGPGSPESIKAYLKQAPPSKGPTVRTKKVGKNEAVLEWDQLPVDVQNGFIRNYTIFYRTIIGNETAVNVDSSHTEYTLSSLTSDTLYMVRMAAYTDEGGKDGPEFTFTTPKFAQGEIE
Description: SPR. A general note: SPR reads the build-up and loss of mass on a sensor chip optically.

For assay [2], the target named is T2, soluble LIFR (leukemia inhibitory factor receptor) (UniProt P42702 45-833).
T2 sequence (looked up): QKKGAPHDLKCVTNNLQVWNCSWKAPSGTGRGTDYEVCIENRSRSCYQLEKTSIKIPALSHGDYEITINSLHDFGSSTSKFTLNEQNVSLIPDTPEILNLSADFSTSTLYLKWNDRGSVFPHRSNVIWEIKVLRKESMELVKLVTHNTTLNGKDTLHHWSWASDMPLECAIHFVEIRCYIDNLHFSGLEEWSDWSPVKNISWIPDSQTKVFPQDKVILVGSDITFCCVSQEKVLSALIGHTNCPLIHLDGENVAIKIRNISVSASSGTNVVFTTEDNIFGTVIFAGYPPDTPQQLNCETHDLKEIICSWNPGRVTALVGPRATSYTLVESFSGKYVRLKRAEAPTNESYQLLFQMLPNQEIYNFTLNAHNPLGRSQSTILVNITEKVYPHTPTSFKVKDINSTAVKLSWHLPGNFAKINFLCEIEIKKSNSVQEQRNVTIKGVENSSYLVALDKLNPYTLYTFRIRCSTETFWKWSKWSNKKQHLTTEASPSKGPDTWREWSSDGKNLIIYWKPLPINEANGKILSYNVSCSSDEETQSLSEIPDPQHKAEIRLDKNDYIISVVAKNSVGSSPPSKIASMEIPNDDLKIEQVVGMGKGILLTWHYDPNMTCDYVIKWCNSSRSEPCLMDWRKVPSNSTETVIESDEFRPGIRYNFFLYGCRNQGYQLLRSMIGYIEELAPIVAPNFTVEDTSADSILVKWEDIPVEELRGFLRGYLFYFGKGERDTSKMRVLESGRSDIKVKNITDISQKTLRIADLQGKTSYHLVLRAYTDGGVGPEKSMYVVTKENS
Description: SPR.

B1: GST-LIF (human leukemia inhibitory factor as glutathione-S-transferase fusion protein) (ligand)
chain: not shown
In the case of B1, in assay [1], the Kd is 9.02 nM, the koff amounted to 0.0017 s⁻¹ and the kon was found to be 188000 M⁻¹ s⁻¹. Moreover, in assay [2], the Kd came to 2.93 nM, the koff was found to be 0.00107 s⁻¹ and the kon is 366000 M⁻¹ s⁻¹.
